Data set [1] has as its target T1, SNF RRM1 (Drosophila melanogaster, UniProt P43332 1-104).
T1 sequence: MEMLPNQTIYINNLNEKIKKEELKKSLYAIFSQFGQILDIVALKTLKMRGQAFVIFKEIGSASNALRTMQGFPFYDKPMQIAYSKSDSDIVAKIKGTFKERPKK
Briefly: SPR; SPR 25 C: 10 mM HEPES pH 7.4, 150 mM NaCl, 3 mM EDTA, 0.05% P-20 (U1hpII); 50 mM PBS pH 7.0, 1 mM EDTA, 0.05% P-20 (poly(U)). EMSA: 4% native gel, protein ~1 uM, buffer by reference. The settings on record: protein: recombinant; tags: pET-21d(+) vector; label: biotin; hairpin.

For data set [2], the target named is T2, SNF RRM1 (residues 1-104) (Drosophila melanogaster (Fruit fly), UniProt P43332).
T2 chain: T1 sequence
The data set is described as follows: NMR 1H-15N HSQC comparison of full-length SNF with isolated RRMs, plus 15N relaxation; inferred in cis from full-length SNF versus isolated domains; separate RRM1 and RRM2 were not reported as mixed in trans.

In data set [3] the target is T3, SNF full-length (NMR, SPR) (Drosophila melanogaster, UniProt P43332 1-216).
T3 sequence: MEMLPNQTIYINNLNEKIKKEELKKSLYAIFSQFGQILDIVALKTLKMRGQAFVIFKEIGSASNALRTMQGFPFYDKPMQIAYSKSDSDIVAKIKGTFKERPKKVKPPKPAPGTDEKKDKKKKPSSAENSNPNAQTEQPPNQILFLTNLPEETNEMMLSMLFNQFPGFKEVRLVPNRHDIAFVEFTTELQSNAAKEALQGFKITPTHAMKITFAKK
Briefly: NMR titration; protein:RNA 1:15; both RRMs perturbed; SPR 25 C: 10 mM HEPES pH 7.4, 150 mM NaCl, 3 mM EDTA, 0.05% P-20 (U1hpII); 50 mM PBS pH 7.0, 1 mM EDTA, 0.05% P-20 (poly(U)). EMSA: 4% native gel, protein ~1 uM, buffer by reference. To be noted: protein: recombinant; tags: pET-21d(+) vector.

Data set [4] concerns the target T3, SNF full-length (NMR, SPR). The data set is described as follows: SPR; n = 1.06; SPR 25 C: 10 mM HEPES pH 7.4, 150 mM NaCl, 3 mM EDTA, 0.05% P-20 (U1hpII); 50 mM PBS pH 7.0, 1 mM EDTA, 0.05% P-20 (poly(U)). EMSA: 4% native gel, protein ~1 uM, buffer by reference. The settings on record: protein: recombinant; tags: pET-21d(+) vector; label: biotin. (In general: Surface plasmon resonance follows binding to a sensor surface in real time, without labels.)

In data set [5] the target is T1, SNF RRM1. Briefly: SPR; n = 1.20; SPR 25 C: 10 mM HEPES pH 7.4, 150 mM NaCl, 3 mM EDTA, 0.05% P-20 (U1hpII); 50 mM PBS pH 7.0, 1 mM EDTA, 0.05% P-20 (poly(U)). EMSA: 4% native gel, protein ~1 uM, buffer by reference. To be noted: protein: recombinant; tags: pET-21d(+) vector; label: biotin.

The Kd is the equilibrium constant for the complex coming apart. For the molecule GGCUUGGCCAUUGCACCUCGGCUGAGUU (structured_RNA, 5' biotin) [U1hpII (SPR)], in the data set with SNF RRM1 [1], the Kd is approximately 4.4 nM.

B1: SNF RRM2 (residues 134-216) (protein)
chain: AQTEQPPNQILFLTNLPEETNEMMLSMLFNQFPGFKEVRLVPNRHDIAFVEFTTELQSNAAKEALQGFKITPTHAMKITFAKK
On to B1, for which, in data set [2], the binding result is recorded as “no binding”.
Turning to UUUUUUUUAUUUUUUUUU (ssRNA) [2U-run (NMR)], the binding result in data set [3] is “binds”.
On to CCCCUCCCCUUUUUUUUUAUUUUUUUU (ssRNA, 5' biotin) [2U-run poly(U) RNA (SPR)], for which the Kd was approximately 300 nM in data set [4] and approximately 6000 nM with SNF RRM1 [5].

For the origin of these results see PMC2731243, “Structure and Novel Functional Mechanism of Drosophila SNF in Sex-Lethal Splicing”.
